These results are taken from patent US6864054 (INSTITUTE OF MOLECULAR AND CELL BIOLOGY, dated 2005).

Where a chain is given by its changes, count along the chain named. In names and notes the source's numbering stands.

The labels stand for the following.
B1: GST-Mdm2 (466-484) (other, human, UniProt Q00987 466-484, looked up, not shown: a dimerising Fc or GST)
chain: KKLKKRNKPCPVCRQPIQM
notes: also called wild type Mdm2 TRAM; Mdm2 TRAM
B2: GST-11E6 (other)
chain: MESKDASTSATSIDQLCKTFNLSLHTLQIQCVFCRNALTTAEIYAYAYKNLKVVWRDNFPFAACACCLELQGKINQYRHFNYAAYAPTVEEETNEDILKVLIRCYLCHKPLCEIEKLKHILGKARFIKLNNQWKGRCLHCWTTCMEDLLP
B3: in vitro translated HPV-11 E6 protein (other)
chain: B2 chain
notes: mature
B4: GST-6E6 (other)
chain: MESANASTSATTIDQLCKTFNLSMHTLQINCVFCKNALTTAEIYSYAYKHLKVLFRGGYPYAACACCLEFHGKINQYRHFDYAGYATTVEEETKQDILDVLIRCYLCHKPLCEVEKVKHILTKARFIKLNCTWKGRCLHCWTTCMEDMLP
notes: mature
B5: GST-16E6 without C-terminal residues 148-151 (other)
chain: MFQDPQERPRKLPQLCTELQTTIHDIILECVYCKQQLLRREVYDFAFRDLCIVYRDGNPYAVCDKCLKFYSKYSEYRHYCYSLYGTTLEQQYNKPLCDLLIRCINCQKPLCPEEKQRHLDKKQRFHNIRGRWTGRCMSCCRSSRTRR
B6: in vitro translated and radiolabeled HPV-16 E6 (other)
chain: MFQDPQERPRKLPQLCTELQTTIHDIILECVYCKQQLLRREVYDFAFRDLCIVYRDGNPYAVCDKCLKFYSKYSEYRHYCYSLYGTTLEQQYNKPLCDLLIRCINCQKPLCPEEKQRHLDKKQRFHNIRGRWTGRCMSCCRSSRTRRETQL
B7: GST-16E6 (other)
chain: B6 chain
B8: in vitro translated HPV-16 E6 L50G protein (other)
chain: B6 chain with L50G
B9: GST-16E6 N-terminal half (1-84) (other)
chain: MFQDPQERPRKLPQLCTELQTTIHDIILECVYCKQQLLRREVYDFAFRDLCIVYRDGNPYAVCDKCLKFYSKYSEYRHYCYSLY
B10: GST-16E6 C-terminal half (85-151) (other)
chain: GTTLEQQYNKPLCDLLIRCINCQKPLCPEEKQRHLDKKQRFHNIRGRWTGRCMSCCRSSRTRRETQL
B11: MBP-CBP (residues 1808-1852) fusion protein (other)
chain: GCKRKTNGGCPVCKQLIALCCYHAKHCQENKCPVPFCLNIKHKLR
notes: Bacterially expressed

Test [1] has as its target T1, in vitro translated radiolabeled TFIIB (UniProt Q00403 1-316).
T1 sequence (looked up): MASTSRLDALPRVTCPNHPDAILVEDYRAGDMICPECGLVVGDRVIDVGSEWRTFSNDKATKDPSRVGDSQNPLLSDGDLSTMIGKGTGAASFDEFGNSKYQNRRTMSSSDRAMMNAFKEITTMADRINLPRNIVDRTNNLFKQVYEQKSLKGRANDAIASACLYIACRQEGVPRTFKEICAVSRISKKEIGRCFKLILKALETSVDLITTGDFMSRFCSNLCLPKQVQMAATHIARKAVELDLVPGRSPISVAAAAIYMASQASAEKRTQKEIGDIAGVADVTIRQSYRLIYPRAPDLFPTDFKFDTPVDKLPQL
Nature of the test: GST micro-column pull-down, IVT protein.

Test [2] addresses in vitro translated 35S-methionine labelled p53 (wild type) (UniProt P04637 1-393). Put plainly: GST micro-column pull-down, IVT protein.
For test [3], the target named is T2, in vitro translated 35S-labeled CBP (1621-1877) (UniProt P45481 1621-1877).
T2 construct: also called in vitro translated CBP II
T2 sequence (looked up): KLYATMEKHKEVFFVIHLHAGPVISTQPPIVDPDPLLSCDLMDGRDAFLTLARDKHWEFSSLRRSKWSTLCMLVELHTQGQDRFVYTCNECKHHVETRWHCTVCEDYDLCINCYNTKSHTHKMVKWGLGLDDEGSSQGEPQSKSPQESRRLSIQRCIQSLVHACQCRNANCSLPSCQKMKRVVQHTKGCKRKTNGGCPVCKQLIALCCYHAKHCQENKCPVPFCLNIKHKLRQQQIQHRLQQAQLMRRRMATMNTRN
Nature of the test: GST-E6 micro-affinity column, IVT CBP II.

The target of another test is T3, GST-E6AP (UniProt Q05086 24-875).
T3 sequence: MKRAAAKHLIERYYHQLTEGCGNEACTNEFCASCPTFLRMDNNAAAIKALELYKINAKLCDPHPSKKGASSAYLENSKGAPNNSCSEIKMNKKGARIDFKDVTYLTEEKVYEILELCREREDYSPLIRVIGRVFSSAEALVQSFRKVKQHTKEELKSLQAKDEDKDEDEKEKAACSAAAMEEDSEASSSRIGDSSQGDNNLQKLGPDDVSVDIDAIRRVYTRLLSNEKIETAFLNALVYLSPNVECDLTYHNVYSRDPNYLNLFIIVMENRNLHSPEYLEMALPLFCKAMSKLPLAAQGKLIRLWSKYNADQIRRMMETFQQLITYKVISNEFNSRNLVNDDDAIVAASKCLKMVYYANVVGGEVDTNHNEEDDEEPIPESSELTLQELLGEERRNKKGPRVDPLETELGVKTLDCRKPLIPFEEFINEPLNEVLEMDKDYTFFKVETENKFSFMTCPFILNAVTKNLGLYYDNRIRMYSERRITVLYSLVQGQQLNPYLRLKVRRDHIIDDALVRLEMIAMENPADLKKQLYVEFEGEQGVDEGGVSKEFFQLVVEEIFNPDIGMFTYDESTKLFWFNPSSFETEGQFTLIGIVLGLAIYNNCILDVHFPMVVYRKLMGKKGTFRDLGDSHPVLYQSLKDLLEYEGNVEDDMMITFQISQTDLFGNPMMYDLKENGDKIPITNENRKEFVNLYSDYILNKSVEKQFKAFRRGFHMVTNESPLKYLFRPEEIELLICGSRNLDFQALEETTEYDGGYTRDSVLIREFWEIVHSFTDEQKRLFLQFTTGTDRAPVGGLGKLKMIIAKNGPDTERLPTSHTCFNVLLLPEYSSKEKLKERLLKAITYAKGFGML
Put plainly: GST-E6AP micro-affinity column, IVT E6.

Test [4] deals with T4, GST-CBP fusion protein (CBP residues not stated) (UniProt P45481 1621-1877).
T4 sequence: T2 sequence (looked up)
Put plainly: GST-CBP micro-affinity column, IVT E6.

In test [5] the target is T2, in vitro translated 35S-labeled CBP …. Nature of the test: GST-E6 fragment micro-affinity column.
The target of test [6] is T5, GST-CBP I (residues 461-662) (UniProt P45481 461-662).
T5 construct: range 461-662; also called GST-CBP I (461-662)
T5 sequence: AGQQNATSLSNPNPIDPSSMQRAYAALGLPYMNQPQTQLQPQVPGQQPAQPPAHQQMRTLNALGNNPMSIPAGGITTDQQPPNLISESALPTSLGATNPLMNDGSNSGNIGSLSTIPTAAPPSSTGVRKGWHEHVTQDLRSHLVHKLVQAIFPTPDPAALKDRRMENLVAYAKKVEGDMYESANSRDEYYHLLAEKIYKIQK
Nature of the test: GST micro-affinity column, IVT radiolabelled E6.

The target of a further test is T6, GST (control) (UniProt P08515 1-218 = GST).
T6 construct: also called control GST column; GST alone
Put plainly: GST micro-affinity column, IVT radiolabelled E6.

In test [7] the target is T7, GST-CBP II (residues 1621-1877) (UniProt P45481 1621-1877).
T7 construct: also called GST-CBP II domain
T7 sequence: T2 sequence (looked up)
Nature of the test: GST micro-affinity column, IVT E6.

The target in test [8] is B11. Put plainly: MBP micro-affinity column, purified recombinant proteins, western blot.
The test “GST-16E6” concerns the target B7. Put plainly: GST micro-affinity column, purified recombinant proteins, western blot.

Sequence of in vitro translated 35S-methionine labelled p53 (wild type) (P04637 whole entry): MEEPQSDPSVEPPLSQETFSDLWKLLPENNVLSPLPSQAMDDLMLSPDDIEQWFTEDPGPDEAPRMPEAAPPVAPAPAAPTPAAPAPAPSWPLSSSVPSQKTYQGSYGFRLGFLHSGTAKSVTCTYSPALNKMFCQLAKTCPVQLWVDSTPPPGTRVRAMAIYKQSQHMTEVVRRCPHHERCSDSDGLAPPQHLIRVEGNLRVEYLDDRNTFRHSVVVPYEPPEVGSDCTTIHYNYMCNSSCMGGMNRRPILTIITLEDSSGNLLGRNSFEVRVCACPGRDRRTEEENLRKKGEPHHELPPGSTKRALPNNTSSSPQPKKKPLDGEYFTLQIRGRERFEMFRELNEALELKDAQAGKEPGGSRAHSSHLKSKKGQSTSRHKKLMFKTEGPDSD
T6 sequence (P08515 whole entry): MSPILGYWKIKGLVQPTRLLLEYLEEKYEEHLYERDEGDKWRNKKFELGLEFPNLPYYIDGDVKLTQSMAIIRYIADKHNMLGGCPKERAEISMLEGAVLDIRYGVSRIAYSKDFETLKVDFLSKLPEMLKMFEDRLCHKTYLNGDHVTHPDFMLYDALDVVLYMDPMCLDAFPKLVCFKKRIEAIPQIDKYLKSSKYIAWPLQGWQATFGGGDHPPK

Consider GCKRKTNGGCPVCKQLIAL (other, UniProt P45481 1808-1826, looked up, not shown: a dimerising Fc or GST, also called CBP TRAM) [GST-CBP (1808-1826)], for which the binding result in [1] is “binds”.

As for B1, the binding result in test [2] and in [1] was “binds” throughout.

As to B2, the binding result in test [3] is “no binding”.

Regarding B3, the binding result (with GST-E6AP; in test [4]) was “no binding” in each case.

As to B4, in test [3], the binding result was “no binding”.

As to B5, the binding result in test [5] is recorded as “binds”.

Take LIRCINCQKPLCPEEKQRHLDKKQRFHNIRGRWTGRCMSCCRSSRTRR (other) [GST-16E6 (amino acids 100-147)]: the binding result in test [5] is listed as “binds”.

Regarding B6, the binding result is “no binding” in [6], “no binding” in the test with GST (control) and “binds” in test [7].

Regarding B7, the binding result in [8] and in test [3] was “binds” throughout.

For the molecule B8, in the test with GST-E6AP, the binding result is on record as “no binding”.

B9: the binding result in test [5] is on record as “no binding”.

As to B10, the binding result in [5] is reported as “binds”.

For the molecule B11, the binding result in the test with GST-16E6 is on record as “binds”.
